Here are results for two molecules from PMC12158189, “Rigid DNA Frameworks Anchored Transistor Enabled Ultrasensitive Detection of Aβ-42 in Serum”.

Data set [1] concerns the target T1, Aβ-42 (amyloid beta 1-42) (UniProt P05067 672-713). The data set can be described thus: G-FET (VDirac shift, Ids-t); full serum; 1x PBS with 12.5 mM Mg2+, pH 7.0-7.4, room temperature; or full serum; probe immobilized on graphene FET. To be noted: protein: commercial; DNA tetrahedron of 4 strands, six 17 bp edges, pendant aptamer with 5T spacer.
The target in data set [2] is T1, Aβ-42 (amyloid beta 1-42). Nature of the data set: G-FET (VDirac shift, Hill fit); pseudo KD; 12.5 mM Mg2+; PBS; 1x PBS with 12.5 mM Mg2+, pH 7.0-7.4, room temperature; or full serum; probe immobilized on graphene FET. The note with it: protein: commercial; DNA tetrahedron of 4 strands, six 17 bp edges, pendant aptamer with 5T spacer.
Data set [3] concerns the target T1, Aβ-42 (amyloid beta 1-42). The data set can be described thus: G-FET (VDirac shift, Hill fit); five orders of magnitude weaker than TDN; 12.5 mM Mg2+; SI captions say insulin; 1x PBS with 12.5 mM Mg2+, pH 7.0-7.4, room temperature; or full serum; probe immobilized on graphene FET. The note with it: protein: commercial.

T1 sequence (P05067 672-713): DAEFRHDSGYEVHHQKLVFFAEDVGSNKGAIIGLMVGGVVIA

B1: 17bp-5T TDN (tetrahedral DNA nanostructure with Aβ-42 aptamer) (structured_DNA)
DNA 1: AGTCTAGGATTCGGCGTGGGTTAATTTTTTGCTGCCTGTGGTGTTGGGGCGGGTGCGTTTTTACATTCCTAAGTCTGAAACATTACAGCTTGCTACACGAGAAGAGCCGCCATAGTA
DNA 2: TATCACCAGGCAGTTGACAGTGTAGCAAGCTGTAATAGATGCGAGGGTCCAATAC
DNA 3: TCAACTGCCTGGTGATAAAACGACACTACGTGGGAATCTACTATGGCGGCTCTTC
DNA 4: TTCAGACTTAGGAATGTGCTTCCCACGTAGTGTCGTTTGTATTGGACCCTCGCAT
modifications: 5' NH2-C6 on strands B17, C17, D17
With B1, the binding result in data set [1] and in data set [2] was “binds” throughout.

B2: ss-DNA aptamer (Aβ-42 aptamer) (ssDNA)
DNA: AGTCTAGGATTCGGCGTGGGTTAATTTTTTGCTGCCTGTGGTGTTGGGGCGGGTGCG
modifications: 5' NH2-C6
Regarding B2, the binding signal in data set [3] is ~100000 fold higher pseudo KD than TDN.
